Measured values reported in patent US20260250420A1 (SICHUAN KELUN BIOTECH BIOPHARMACEUTICAL, published 2026).

T1: human PTK7 on cells (tumor cells endogenously expressing PTK7); CHO-hPTK7, CHO-S-hPTK7 and 293T-hPTK7 … (human, UniProt Q13308 31-1070)
T1 sequence (looked up): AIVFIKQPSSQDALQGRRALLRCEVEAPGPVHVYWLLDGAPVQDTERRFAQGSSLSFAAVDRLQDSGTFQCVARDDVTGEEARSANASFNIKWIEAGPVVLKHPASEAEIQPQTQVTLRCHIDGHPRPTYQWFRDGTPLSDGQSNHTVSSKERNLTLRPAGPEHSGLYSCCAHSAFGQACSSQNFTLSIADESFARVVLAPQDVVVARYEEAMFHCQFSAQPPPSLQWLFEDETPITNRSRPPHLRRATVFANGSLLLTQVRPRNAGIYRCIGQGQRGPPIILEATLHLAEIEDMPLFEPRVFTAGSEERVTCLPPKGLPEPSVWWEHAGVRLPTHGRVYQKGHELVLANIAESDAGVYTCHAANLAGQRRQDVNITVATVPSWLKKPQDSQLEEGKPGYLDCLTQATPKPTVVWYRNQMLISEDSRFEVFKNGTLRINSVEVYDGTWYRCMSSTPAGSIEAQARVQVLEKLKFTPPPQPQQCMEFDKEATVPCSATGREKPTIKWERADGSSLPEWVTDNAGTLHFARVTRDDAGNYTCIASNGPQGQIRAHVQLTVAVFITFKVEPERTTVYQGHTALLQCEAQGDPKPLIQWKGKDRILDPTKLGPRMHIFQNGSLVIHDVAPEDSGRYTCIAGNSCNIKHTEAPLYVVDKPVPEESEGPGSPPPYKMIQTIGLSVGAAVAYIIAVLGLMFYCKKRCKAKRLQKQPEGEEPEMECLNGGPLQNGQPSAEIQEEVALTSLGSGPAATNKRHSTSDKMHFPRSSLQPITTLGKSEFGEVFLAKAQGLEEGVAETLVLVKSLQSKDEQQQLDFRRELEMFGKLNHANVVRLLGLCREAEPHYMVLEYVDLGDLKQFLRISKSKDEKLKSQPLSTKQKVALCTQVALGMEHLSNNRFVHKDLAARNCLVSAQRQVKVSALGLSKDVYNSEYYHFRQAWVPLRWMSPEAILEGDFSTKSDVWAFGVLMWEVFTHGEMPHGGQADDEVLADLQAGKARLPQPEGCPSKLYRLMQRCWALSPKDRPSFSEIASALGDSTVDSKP

T2: human Fc receptor protein CD32a (human, UniProt P12318 34-217, biotinylated)
T2 construct: Biotinylated protein captured on SA sensors
T2 sequence (looked up): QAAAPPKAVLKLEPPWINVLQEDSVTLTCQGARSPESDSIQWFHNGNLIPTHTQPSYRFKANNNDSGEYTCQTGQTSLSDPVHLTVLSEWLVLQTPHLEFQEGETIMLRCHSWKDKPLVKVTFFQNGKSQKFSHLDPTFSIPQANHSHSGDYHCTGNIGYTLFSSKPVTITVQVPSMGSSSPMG

T3: human Fc receptor protein CD32b (human, UniProt P31994 43-217, biotinylated)
T3 construct: Biotinylated protein captured on SA sensors
T3 sequence (looked up): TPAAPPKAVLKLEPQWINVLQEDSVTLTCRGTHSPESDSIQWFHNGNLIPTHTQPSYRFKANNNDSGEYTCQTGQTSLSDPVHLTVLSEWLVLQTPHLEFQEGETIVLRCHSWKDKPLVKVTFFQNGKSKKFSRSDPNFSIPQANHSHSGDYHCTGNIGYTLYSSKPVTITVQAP

T4: monkey PTK7 protein (extracellular sequence of monkey PTK7 with C-terminal 6×His tag) (monkey)
T4 chain: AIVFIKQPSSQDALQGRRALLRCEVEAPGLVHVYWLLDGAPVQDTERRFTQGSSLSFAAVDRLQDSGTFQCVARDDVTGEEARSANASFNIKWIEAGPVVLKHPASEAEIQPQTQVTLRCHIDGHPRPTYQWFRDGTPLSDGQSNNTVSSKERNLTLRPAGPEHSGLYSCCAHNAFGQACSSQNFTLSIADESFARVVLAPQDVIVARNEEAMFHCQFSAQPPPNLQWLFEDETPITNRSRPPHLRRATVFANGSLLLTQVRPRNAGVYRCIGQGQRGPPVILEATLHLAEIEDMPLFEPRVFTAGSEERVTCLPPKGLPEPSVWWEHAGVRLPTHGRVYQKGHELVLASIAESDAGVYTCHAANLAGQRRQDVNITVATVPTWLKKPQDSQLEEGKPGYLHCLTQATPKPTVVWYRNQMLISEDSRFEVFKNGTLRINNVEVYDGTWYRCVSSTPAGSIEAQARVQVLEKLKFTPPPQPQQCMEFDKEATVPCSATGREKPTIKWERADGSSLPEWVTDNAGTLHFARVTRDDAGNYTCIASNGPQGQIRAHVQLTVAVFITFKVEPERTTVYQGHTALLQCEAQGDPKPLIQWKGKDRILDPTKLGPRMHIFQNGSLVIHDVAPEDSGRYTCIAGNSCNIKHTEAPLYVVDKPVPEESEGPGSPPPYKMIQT

T5: human PTK7 protein (extracellular sequence of human PTK7 with C-terminal 6×His tag) (human, UniProt Q13308 31-704)
T5 construct: extracellular domain; Expressed transiently in HEK293 cells; also called human PTK7-His; human PTK7-His protein
T5 sequence: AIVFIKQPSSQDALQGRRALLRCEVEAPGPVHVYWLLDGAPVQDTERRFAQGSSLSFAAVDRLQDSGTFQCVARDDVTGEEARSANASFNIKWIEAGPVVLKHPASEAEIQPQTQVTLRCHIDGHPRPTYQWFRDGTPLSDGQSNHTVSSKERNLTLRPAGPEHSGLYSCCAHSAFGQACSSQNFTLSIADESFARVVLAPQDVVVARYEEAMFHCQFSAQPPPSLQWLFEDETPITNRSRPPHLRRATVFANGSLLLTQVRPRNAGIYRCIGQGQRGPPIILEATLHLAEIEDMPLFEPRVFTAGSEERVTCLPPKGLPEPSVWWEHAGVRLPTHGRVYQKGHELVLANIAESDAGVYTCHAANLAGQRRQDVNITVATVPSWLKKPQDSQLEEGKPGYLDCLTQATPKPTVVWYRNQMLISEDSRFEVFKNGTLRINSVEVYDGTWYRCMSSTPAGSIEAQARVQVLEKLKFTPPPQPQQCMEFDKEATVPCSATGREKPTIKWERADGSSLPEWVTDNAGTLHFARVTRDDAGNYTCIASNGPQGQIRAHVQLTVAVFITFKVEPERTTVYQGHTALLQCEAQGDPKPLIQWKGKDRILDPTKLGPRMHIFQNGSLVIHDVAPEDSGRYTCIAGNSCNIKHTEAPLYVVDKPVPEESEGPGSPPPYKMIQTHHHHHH


How the values were obtained:
[1] = biological target: T1, human PTK7 on cells (tumor cells …); assay: cell-based or functional assay
[2] = biological target: T6, human Fc receptor protein CD16a (human, UniProt P08637 17-208, biotinylated); assay: BLI (ForteBio), biotinylated receptor on SA sensor, antibody in solution
T6 construct: Biotinylated protein captured on SA sensors
From the text: (§1) The dynamic affinity of the antibodies 101A6HZ, 101A6HZm and Hu24 with human Fc receptor proteins CD16a, CD32a, CD32b, CD64 and FcRn was detected through ForteBio (Pall life sciences).

[3] = biological target: T2, human Fc receptor protein CD32a; assay: as above
From the text: as §1

[4] = biological target: T3, human Fc receptor protein CD32b; assay: as above
From the text: as §1

[5] = biological target: T7, human Fc receptor protein CD64 (human, UniProt P12314 16-292, limits assumed, biotinylated); assay: as above
T7 construct: Biotinylated protein captured on SA sensors
From the text: as §1

[6] = biological target: T8, human Fc receptor protein FcRn (human, UniProt P55899 24-297; P61769 21-119, biotinylated); assay: BLI (ForteBio), biotinylated receptor on SA sensor, antibody from 5,000 nM, 1:1 global fit
T8 construct: Biotinylated protein captured on SA sensors
From the text: as §1

[7] = biological target: T1, human PTK7 on cells (tumor cells …); assay: cell-based or functional assay; remark: listed apart in the source
[8] = biological target: T1, human PTK7 on cells (tumor cells …); assay: flow cytometry on CHO-hPTK7 overexpression cells
From the text: A flow cytometer (Beckman, Cytoflex) was used for detecting the affinity of the anti-human PTK7 chimeric and humanized antibodies with human non-small cell lung cancer cells H1299, human lung adenocarcinoma cells H1975, human breast cancer cells T47D, human ovarian cancer cells OVCAR-3 (all purchased from NANJING COBIOER BIOSCIENCES CO., LTD) and CHO-hPTK7 overexpression cells.
The adherent cells were digested by using a pancreatin (Gibco) solution; a proper amount of cells were counted and taken, washed twice by using 1×PBS, and re-suspended in a 1% BSA solution; and then the cells were transferred into a 96-well deep plate at a density of 50 μl/well; a candidate antibody was diluted by using 1% BSA, then 50 μl of diluted antibody was added into the deep plate containing the cells, and incubated for 40 min at 4° C.; the cells were washed twice by using PBS, then 50 μl of diluted secondary antibody was added into each well, uniformly mixed, and incubated for 30 min at 4° C.; and the cells were washed twice by using PBS, then re-suspended in 400 μl of PBS, and subjected to examination by flow cytometer.

[9] = biological target: T4, monkey PTK7 protein (extracellular …); assay: BLI (ForteBio), antibody on Protein A sensor, monkey PTK7 protein in solution
From the text: (§2) The dynamic affinity of the control Hu24 and candidate antibodies 64A10HZ, 101A6HZ, 4E12HZ and 19C2HZ with human PTK7-His was detected by using ForteBio (Pall life sciences).
ELISA and ForteBio were adopted to detect binding of the anti-human PTK7 chimeric and humanized antibodies to the monkey, mouse and rat PTK7 proteins.

[10] = biological target: T5, human PTK7 protein (extracellular …); assay: BLI (ForteBio), antibody on Protein A sensor, human PTK7-His 200-3.125 nM, 1:1 global fit
From the text: as §2

[11] = biological target: T1, human PTK7 on cells (tumor cells …); assay: competition flow cytometry on 293T-hPTK7 cells, streptavidin-PE; competitor: biotin-labelled 4E12HZ
[12] = biological target: T1, human PTK7 on cells (tumor cells …); assay: competition flow cytometry on 293T-hPTK7 cells, streptavidin-PE; competitor: biotin-labelled Hu24
[13] = biological target: T1, human PTK7 on cells (tumor cells …); assay: competition flow cytometry on 293T-hPTK7 cells, streptavidin-PE; competitor: biotin-labelled 19C2HZ

T7 sequence (P12314 16-292 limits assumed): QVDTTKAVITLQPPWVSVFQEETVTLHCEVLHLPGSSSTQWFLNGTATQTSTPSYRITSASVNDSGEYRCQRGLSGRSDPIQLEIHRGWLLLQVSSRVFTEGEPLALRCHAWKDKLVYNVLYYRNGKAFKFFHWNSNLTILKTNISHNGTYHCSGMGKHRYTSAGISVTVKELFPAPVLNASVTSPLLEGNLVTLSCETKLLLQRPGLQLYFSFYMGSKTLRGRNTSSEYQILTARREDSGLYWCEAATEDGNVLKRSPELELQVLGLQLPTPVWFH
T6 sequence (P08637 17-208 limits assumed): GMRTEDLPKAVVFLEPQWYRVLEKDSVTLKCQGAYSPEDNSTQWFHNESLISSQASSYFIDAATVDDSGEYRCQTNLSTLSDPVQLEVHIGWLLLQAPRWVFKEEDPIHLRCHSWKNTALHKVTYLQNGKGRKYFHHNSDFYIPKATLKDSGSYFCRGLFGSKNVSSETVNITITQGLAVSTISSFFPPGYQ

Cell endocytosis, EC50, A431 cells [1] [µg/mL] | Cell endocytosis, EC50, HCC1806 cells [1] [µg/mL] | Cell endocytosis, EC50, NCI-H358 cells [1] [µg/mL] | Cell endocytosis, EC50, OVCAR3 cells [1] [µg/mL] | Kd [6] [nM] | FADU cell endocytosis activity, EC50 [7] [µg/mL] | EC50 [8] [µg/mL] | Kd [9] [nM] | Kd [10] [nM] | koff [10] [s⁻¹] | kon [10] [M⁻¹ s⁻¹] | IC50 (read off the curve) [11] [µg/mL] | IC50 (read off the curve) [12] [µg/mL] | IC50 (read off the curve) [13] [µg/mL] | Binder | binding result [2] | binding result [3] | binding result [4] | binding result [5]
0.0732 | 0.0576 | 0.0729 | 0.0665 | 16.6 | – | – | – | – | – | – | – | – | – | 101A6HZm (101A6HZ with mutant human heavy chain constant region IgG1m) (antibody, light chain as in 101A6HZ; also called anti-human PTK7 humanized mutant antibody) heavy: not shown light: DIVMTQSPDSLAVSLGERATINCKASQDVGSAVIWYQQKPGQSPKLLIYWASTRHTGVPDRFSGSGSGTDFTLTISSLQAEDVAVYYCQQYSSYPLTFGQGTKLEIKRTVAAPSVFIFPPSDEQLKSGTASVVCLLNNFYPREAKVQWKVDNALQSGNSQESVTEQDSKDSTYSLSSTLTLSKADYEKHKVYACEVTHQGLSSPVTKSFNRGEC | no binding (tested: initial concentration of 5,000 nM) | no binding (tested: initial concentration of 5,000 nM) | no binding (tested: initial concentration of 5,000 nM) | no binding (tested: initial concentration of 5,000 nM)
– | – | – | – | – | 0.147 | 0.0414 | 9.68 | 22 | 0.00534 | 243000 | ~0.1 | – | – | 4E12HZ (anti-human PTK7 humanized antibody) (antibody, human IgG1, kappa, V domains shown, Human IgG1 heavy chain constant region and human Kappa light chain constant region) VH: QVQLVQSGAEVKRPGASVKVSCKTSGYTFTDYAMHWVRQAPGKGLEWIGVISTYYGNVSYNQKFKGRVTMTRDTSTSTVYMELSSLTSEDTAIYYCARGFAYWGQGTLVTVSS VL: DIVITQTELSLPVTPGERASISCRSSKSLQKKDGKTYLNWFLQKPGQSPQLLIYLMSTRASGVSDRFSGSGSGTDFTLKISRVEAEDVGVYYCQQLVEYPFTFGQGTKLEIKR | – | – | – | –
– | – | – | – | – | 0.134 | 0.201 | 0.092 | 3.7 | 0.000728 | 197000 | – | ~0.6 | ~0.8 | 19C2HZ (anti-human PTK7 humanized antibody) (antibody, human IgG1, kappa, V domains shown, Human IgG1 heavy chain constant region and human Kappa light chain constant region) VH: QVTLKESGPTLVKPTQTLTLTCTFSGFSLSTSGMGINWIRQPPGKALEWLALIWWDDDKYYNPSLKNRLTITKDTSKNQVVLTMTNMDPVDTATYYCARSLITTAPSDYWGQGTLVTVSS VL: DIQMTQSPSSLSASVGDRVTITCKASQNVGTAITWYQQRPGKAPKLLIYSASNRYTGVPSRFSGSGSGTDFTLTISNLQPEDLATYFCLQYSDYPLTFGQGTRLEIKR | – | – | – | –
